Assay: soluble on expression in E. coli; label from the status in PepcDB or PDB records

Sequence | soluble on expression in E. coli
MGSDKIHHHHHHMRDLLNDLSEGLSHPDPILRAQIQMQKPLPKRFYKDVTVADVEEGGFTILLDGKPLRTPAKKPLVAPSRALADLLRDEWDAQKEVVNPVVMPVSRHVNTAIDGIASDTQAVFEDILRFSSSDLLCYRAGDPEALVARQTDYWDPVLDWATNVLGARFILVEGVMHRDQPREAIAAFAVTLKKYDTPIALAALHTMTSLTGSAILALALAEGELTLEEAWALAHLDEDWTAEQWGEDEEALERRAVRLIDMRAALNVLESLKSAS | not soluble
MGSDKIHHHHHHMISNLYFVKLKNIGEHEFIKRYIKNYMDIKLLDDVFINEKRGYKVDGFKLSYAFPFMSLYDIGWKAISASTSDIIAKGVKPEFYLISLGLPPDFDVNKAEELIGGISDAIHYYGGRYVGGDLNDSDSNGWVDVFVEGEVLCDISDKVIDDGDLLVIGDYIGYTTNVFISYINNFNIQILPESLLKVKHPIVKKSLLFFMKKYCKFIKYSTDISDGLMVSLYKIVDNFNLGINITEIPIDKNVFNSLKLRLNLTELDILKYAGEEFLPLLIIDKNSPVKEMLAELQYLAFNPLIIGQVIHENRLITYKNTVIKNTGWDNFIGWY | not soluble
MGSDKIHHHHHHMQLSSRPSSLVLDHHQNKFLTPWSDPADPHILFPIQPLEQLLVQLGWPDPQAWLIHWQKRGGISLKRPFWHPSTRTDWIWGLGLPLLTLVEGCLGKSDRSLLGITGLPGCGKTSLGCWLEAAAGELGWPIKVISLDDFYWPFPQLDRSMSGNPWRVPRALPGSHDLDLLASVLDTWQSTGHLKAPMFDKALRHGRGDRDGWHLSDPKVLVIEGWILGCLPCKFAEAGQFSDQLVPPLNKLEHDYRLVVQEALNGYVPIWDRLDTLWHLKAIDPSSTRIWKANQESLMQLNRGVCLDQESFEGFVRMILASIPLTCLDGIEADVVATLTPARQLMWVGQRGYQDSSSSDSCIG | not soluble
MMTQTLLIELLTEELPPKALNNLGNHFAASVAEGLEKAQLVDGAAEFTAYASPRRLAVQVKNVKAVQADQKIVKKGPAVANAMKDGAPTKALEGFARGAGAKIEDLTIVHDGKQDVYAYEYVQIGKPLGGLLEDIINQAVKKLPIPKVMRWGSSTFTFVRPVHGLVVLHGGDIVNVSVLGLQSGNKTLGHRFLSDGEITIENADSYAAQMREQGKVVASFAERKAAIQTVLEGQARRLNATAAADEALLDEVTALVEWPVVLEAGFEEHFLAVPQECLILTMQQNQKYFPLLDQNGKLMNRFLLVSNLQTEDPSHIIQGNERVLRARLSDAEFFYKQDQKATLESRLPKLTNVVYHNKIGSQAERIERLQSIAAHIAKALGADAAAAERAARLAKADLVTEMVGEFPELQGTMGKYYARLDGETEEITEAVEQHYQPRFAGDNLPEGKIAAAVALADKLETLVGIWGIGLIPTGDKDPYALRRAALGILRMLMQYGLDVNELIQTAFNSFPQGLLNEKTPSETADFMQARLAVLLQNDYPQDIVAAVLAKQPRRLDDLTAKLQAVAAFKQLPEAAALAAANKRVQNLLKKADAELGAVNESLLQQDEEKALFAAAQGLQPKIAAAVAEGNFQTALSELASVKPQVDAFFDGVMVMAEDAAVKQNRLNLLNRLAEQMNAVADIALLGE | not soluble
SPAKTPIYLKSNYSKKGKKCRLRDILSPDMISPPLGDFRHTIHIGKGGECDAFGDMSFLQGNFELLPGKGGRVRPQYGLHGEFTRANSASDASYVETPSPVLKNAISLPTIGGSQALTLPMISTTVFPMTHDNMSEPSTPPAGSEDLEILQMETLLQSISIFRSDPSPVPEEDEPMIDRMEMNEKSCMKKMHSSEKELETFLSVFVNGNGDANGNFNNGNNGDSVFQYEQDMFSIKGDWADRDSGVEEGRLCDSDFEISKSKSQSQESLPQITGSLFSLELDLGPSILDDVLNIMNKPVS | soluble
MSLPDTSPDLPAMSPLAVYRQAVEQRGFAPDEAQRRAAEALERCFQALHEAHRHGAIQGVYLWGPVGRGKTWLMDHFYQCLRVPARRQHFHHFMQWVHQRQFELTGTADPLRALARELARDVRVLCFDELFVSDIGDAILLGSLLRIMFEEGVVLVATSNQPPEQLYADGFNRERFLPAIEAIQRHMAVVAVDGGQDHRLHPGRAEQRYWVVEAGQASGFAELFARLSAGEAASTQPIELGHRPLAVHRHSESVLWCSYAQLCEAPLSALDFIGLCDRYRAILMDDLPCLSASQREGRIARGTEDGAQLVEAGDRELPQLSVHDDGVRRFIALVDECYDRKVPLYLEARVPLEALYTEGYLAFAFRRTLSRLREMQLARFGSDSEGGSHHHHHH | soluble
